# Where two headings read alike, the source gives them in different places.
# T1: TN
# T1 single chain: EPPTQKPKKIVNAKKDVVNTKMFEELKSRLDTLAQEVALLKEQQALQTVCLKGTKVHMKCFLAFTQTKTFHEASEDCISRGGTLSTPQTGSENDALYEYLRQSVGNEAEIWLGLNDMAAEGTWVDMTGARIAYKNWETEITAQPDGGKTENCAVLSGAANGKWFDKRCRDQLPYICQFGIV
# B1: Clone 27B12 (mAb8) (antibody, V domains shown)
# VH: DVKLVESGGGLVKLGGSLKLSCAASGFTFSTDYMSWVRQSPEKRLELVAAINSNGGTTYYPDTVKGRFIISRDNAKNTLYLQMSSLRSEDTALYYCARQVKNGLDYWGQGTSVTVSS
# VL: DIQMTQTTSSLSASLGDRVTISCRASQDISNYLNWYQQKPDGTVKLLIYKTSRLHSGVPSRFRGSGSGTDYSLTISNLEEEDVATYFCQQGNTLPPTFGGGTKLEIK
# B2: Clone 18B1 (mAb2) (antibody, V domains shown)
# VH: DVKLVESGGGLVNLGGSLKLSCAASGFTFSSDYMSWVRQIPEKRLELVAAINSNGGTTYYPDTVKGRFTISRDNAKNTLYLQMSSLKSEDTALYYCARQGKNGMDYWGQGTSVTVSS
# VL: DIQMTQTTSSLSASLGDRVTISCRASQDISNHLNWYQQRPDGTVKLLIYYTSRLHSGVPSRFSGSGSGTDYSFTITNLDQEDIATYFCQQGKTLPPTFGGGTKLEIK
# B3: 23F6 (mAb5) (antibody, V domains shown)
# VH: DVKLVESGGGLVKLGGSLKLSCAASGFTFSSSYMSWVRQTPEKRLELVAAINNNGGTTYYPDTVKGRFTISRDNAKNTLYLQMSSLKSEDTALYYCTRQGKNGLDYWGQGTSVTVSS
# VL: DIQMTQTTSSLSASLGDRVTISCRASQDIGNLLNWYQQKPDGTVKLLISYTSRLHSGVPSRFSGSGSGTDYSLTITNLEQEDIATYFCQQANTLPPTFGGGSKLEIK
# B4: Clone 25B2 (mAb6) (antibody, V domains shown)
# VH: DVNLVESGGGLVKLGGSLKLSCADSGFTFSSYYMSWVRQTPEKRLELVAAINSNGGRTYYPDTVKGRFTISRDNAKNTLYLQMSSLKSEDTALYYCARQGKNGLDYWGQGTSVTVSS
# VL: DIQMTQTTSSLSASLGDRVTISCRASQDISNHLNWYQQKPDGTIKLLIYYTSRLHSGVPSRFSGSGSGTDFSLSISNLEQEDIATYFCQQGKTLPPTFGGGTKLEIK
# Legend:
# [1] = target: T2, Recombinant receptor-binding motif (RBM, residues 437-508) of SARS-CoV-2 spike (S) protein with N-terminal … (SARS-CoV-2, UniProt P0DTC2 437-508)
# [2] = target: T2, Recombinant receptor-binding motif …; remark: listed apart in the source
# [3] = target: T1, TN
# [4] = target: T2, Recombinant receptor-binding motif …; remark: listed apart in the source
Binder,Kd [1],Kd [2],Kd [3],Kd [4]
B1,0.0574 µM,0.0174 µM,0.00202 µM,0.0174 µM
B2,,0.0628 µM,0.000114 µM,0.0628 µM
B3,,,0.00803 µM,
B4,,0.18 µM,0.000915 µM,0.18 µM

# Source: patent US20230287090A1 (FEINSTEIN INSTITUTES FOR MEDICAL RESEARCH, published 2023)
